Starred links: 1 amine or outer side, 2 acyl side, 3 side chain; linkers in the order of their positions; H or OH if unused. Positions of bridges follow the written chain, without caps; N, C: chain ends. Non-standard residues stand in square brackets, D forms with d. Primed or numbered codes have the meaning given here. B5(4) = 2,2-bis(4-pentenyl)glycine = 2-amino-2-(pent-4-en-1-yl)hept-6-enoic acid (stitching residue), C=CCCCC(CCCC=C)(N[*:1])C(=O)[*:2]; B5(5) = 2,2-bis(4-pentenyl)glycine, 2-amino-2-(pent-4-en-1-yl)hept-6-enoic acid (stitching residue), C=CCCCC(CCCC=C)(N[*:1])C(=O)[*:2]; RdN = (R)-4-(((allyloxy)carbonyl)(methyl)amino)-2-amino-2-methylbutanoic acid, C=CCOC(=O)N(C)CC[C@@](C)(N[*:1])C(=O)[*:2]; S7 = C[C@@](CCCCCC=[*:3])(N[*:1])C(=O)[*:2]; αAllylPro = C=CC[C@@]1(C(=O)O)CCCN1; S8 = C=CCCCCCC[C@](C)(N)C(=O)O

In experiment [1] the target is T1, full-length beta-Catenin (Uniprot ID P35222) (Homo sapiens (Human), UniProt P35222 2-781).
T1 construct: also called B-Catenin; bCat
T1 sequence: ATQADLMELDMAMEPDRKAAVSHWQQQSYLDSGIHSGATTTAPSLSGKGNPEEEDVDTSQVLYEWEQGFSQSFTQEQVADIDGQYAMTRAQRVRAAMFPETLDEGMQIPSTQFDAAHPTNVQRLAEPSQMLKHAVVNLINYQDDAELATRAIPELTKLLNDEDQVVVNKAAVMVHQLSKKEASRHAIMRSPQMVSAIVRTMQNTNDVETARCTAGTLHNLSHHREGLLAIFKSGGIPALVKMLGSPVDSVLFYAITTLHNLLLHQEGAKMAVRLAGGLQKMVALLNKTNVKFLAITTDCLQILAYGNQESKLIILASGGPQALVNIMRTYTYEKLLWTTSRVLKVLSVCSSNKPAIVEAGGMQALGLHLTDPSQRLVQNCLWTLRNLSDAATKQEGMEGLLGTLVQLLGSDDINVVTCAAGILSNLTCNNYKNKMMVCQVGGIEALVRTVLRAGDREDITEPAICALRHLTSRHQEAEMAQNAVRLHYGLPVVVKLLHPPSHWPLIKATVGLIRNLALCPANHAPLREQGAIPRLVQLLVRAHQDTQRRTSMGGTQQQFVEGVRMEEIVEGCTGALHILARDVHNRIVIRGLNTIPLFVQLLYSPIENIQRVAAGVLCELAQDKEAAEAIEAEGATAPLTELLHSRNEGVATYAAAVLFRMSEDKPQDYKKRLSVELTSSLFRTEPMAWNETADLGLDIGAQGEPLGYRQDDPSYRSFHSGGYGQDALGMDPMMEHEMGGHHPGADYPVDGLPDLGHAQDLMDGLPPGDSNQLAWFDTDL
Put plainly: fluorescence polarization competition; 5FAM-TCF4(10-53) probe with full-length beta-catenin. The procedure:
(§1) The plate was incubated protected from light for 60 minutes at 20° C. prior to read. Reads were performed on a CLARIOstar plate reader (BMG Labtech) in duplicate, and data were fitted to a 1:1 binding model with hill slope using an in-house script. All provided concentrations are final concentrations.
Background: Fluorescence polarisation rises when a labelled molecule tumbles more slowly, as on binding a larger partner.

Experiment [2] concerns the target T1, full-length beta-Catenin (Uniprot ID …). As to the kind of experiment: Alphascreen competition; biotin-TCF4(10-53) probe with full-length beta-catenin. On the procedure:
Equal volume of the titrated peptide was added to the plate and incubated for 15 minutes at 20° C. Then 4 uL of donor and 4 uL acceptor beads at 10 ug/mL were added to the plate, for a 16 uL reaction pool and protected from light for 60 minutes at 20° C. prior to read. Reads were performed on a CLARIOstar plate reader (BMG Labtech) in duplicate, and data were fitted to a 1:1 binding model with hill slope using an in-house script. All provided concentrations are final concentrations.
On the technique in general: In Alpha technology, singlet oxygen from a donor bead excites a nearby acceptor bead.

Experiment [3] deals with T2, beta-Catenin (full-length, Uniprot ID P35222) (Homo sapiens (Human), UniProt P35222 1-781).
T2 construct: also called bCat; B-Catenin
T2 sequence: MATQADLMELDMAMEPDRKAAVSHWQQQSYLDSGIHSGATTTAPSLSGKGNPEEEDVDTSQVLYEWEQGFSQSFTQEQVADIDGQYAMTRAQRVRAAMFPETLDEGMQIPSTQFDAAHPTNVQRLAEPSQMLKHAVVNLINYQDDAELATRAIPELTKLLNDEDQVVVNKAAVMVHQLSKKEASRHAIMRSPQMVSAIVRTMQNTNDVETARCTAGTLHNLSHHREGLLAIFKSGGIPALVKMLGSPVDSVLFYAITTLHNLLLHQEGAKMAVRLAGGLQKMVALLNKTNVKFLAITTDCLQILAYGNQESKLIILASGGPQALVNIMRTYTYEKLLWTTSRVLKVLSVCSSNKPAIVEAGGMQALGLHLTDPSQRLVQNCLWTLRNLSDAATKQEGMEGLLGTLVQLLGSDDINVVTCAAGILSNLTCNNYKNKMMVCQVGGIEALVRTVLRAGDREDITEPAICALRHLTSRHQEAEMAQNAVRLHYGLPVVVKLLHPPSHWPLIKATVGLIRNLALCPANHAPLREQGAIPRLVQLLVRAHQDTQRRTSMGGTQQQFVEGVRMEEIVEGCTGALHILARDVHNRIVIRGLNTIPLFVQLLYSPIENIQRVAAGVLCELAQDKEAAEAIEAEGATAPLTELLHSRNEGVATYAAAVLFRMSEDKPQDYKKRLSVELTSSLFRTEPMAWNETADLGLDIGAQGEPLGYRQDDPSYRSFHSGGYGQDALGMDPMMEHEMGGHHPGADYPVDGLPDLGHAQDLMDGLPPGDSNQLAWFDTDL
As to the kind of experiment: fluorescence polarization competition: peptide titrated against 10 nM full-length beta-catenin + 10 nM 5FAM-labeled TCF4 residues 10-53 probe. The procedure:
as §1

Experiment [4] has as its target T3, full-length beta-Catenin (Uniprot ID P35222) (Homo sapiens (Human), UniProt P35222 2-781).
T3 construct: Used full-length in both the FP and the AlphaScreen assay; also called B-Catenin; bCat
T3 sequence: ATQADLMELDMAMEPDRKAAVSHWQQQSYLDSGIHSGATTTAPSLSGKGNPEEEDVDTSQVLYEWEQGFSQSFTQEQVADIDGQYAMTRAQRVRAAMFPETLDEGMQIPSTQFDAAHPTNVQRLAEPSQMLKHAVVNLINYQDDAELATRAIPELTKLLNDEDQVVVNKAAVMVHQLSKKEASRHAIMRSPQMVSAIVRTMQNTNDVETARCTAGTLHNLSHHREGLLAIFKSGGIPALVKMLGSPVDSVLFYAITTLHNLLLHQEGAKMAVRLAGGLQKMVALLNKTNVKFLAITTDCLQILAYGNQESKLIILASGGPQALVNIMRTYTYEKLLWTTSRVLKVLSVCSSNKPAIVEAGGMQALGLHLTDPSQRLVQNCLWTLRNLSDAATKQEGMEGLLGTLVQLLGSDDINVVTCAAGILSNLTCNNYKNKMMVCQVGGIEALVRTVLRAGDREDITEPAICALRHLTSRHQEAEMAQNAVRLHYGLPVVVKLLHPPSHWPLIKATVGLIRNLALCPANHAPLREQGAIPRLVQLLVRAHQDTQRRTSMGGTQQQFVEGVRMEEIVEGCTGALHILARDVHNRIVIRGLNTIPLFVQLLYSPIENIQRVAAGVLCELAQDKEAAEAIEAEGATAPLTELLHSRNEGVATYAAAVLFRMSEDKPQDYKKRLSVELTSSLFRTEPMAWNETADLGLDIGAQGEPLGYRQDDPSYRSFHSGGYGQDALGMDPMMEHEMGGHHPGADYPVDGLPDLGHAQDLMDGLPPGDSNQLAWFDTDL
Put plainly: fluorescence polarization competition; full-length beta-catenin, 5FAM-TCF4(10-53) probe. On the procedure:
as §1

Experiment [5] has as its target T3, full-length beta-Catenin (Uniprot ID …). Put plainly: AlphaScreen competition; full-length beta-catenin, biotin-TCF4(10-53) probe. The method, boiled down: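 Titrated peptide was preincubated 15 minutes at 20° C, then donor and acceptor beads were added for 60 minutes at 20° C protected from light. Reads were done in duplicate, and data were fitted to a 1:1 binding model with Hill slope; concentrations are final.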

B1: I-123 (peptide)
peptide: Ac-[αAllylPro]DA[B5(4)]DEAAFV[S8]FWQ-NH2
modifications: staple 1-4, 4-11
notes: Stitched (two-staple) peptide composition
B1: the EC50 in experiment [1] was determined as 2.11 µM; in experiment [2], 444 nM.

B2: I-125 (peptide)
peptide: XDAXDNAAFVXFWQ
modifications: not fully specified; as printed: Ac-PL3-Asp-Ala-B5-Asp-Asn-Ala-Ala-Phe-Val-S8-Phe-Trp-Gln-NH2; staples PL3(1)-B5(4) and B5(4)-S8(11)
notes: as for B1
Take B2: the EC50 is 3.06 µM in experiment [1] and 569 nM in experiment [2].

B3: I-127 (peptide)
peptide: Ac-[αAllylPro]DA[B5(5)]DQAAFV[S8]FWQ-NH2
modifications: staple 1-4, 4-11
notes: as for B1
In the case of B3, the concentration for a half-maximal effect (EC50) in experiment [1] was determined as 4.84 µM; in experiment [2] it was 552 nM.

B4: I-263: Ac-PL3-Asp-Ala-B5-Asp-Asp-Ala-Ala-Phe-Val-S8-34FF-Trp-Gln-NH2 (peptide)
peptide: XDAXDDAAFVXFWQ
modifications: not fully specified; N-terminal Ac; PL3 at position 1; B5 at position 4; S8 at position 11; 34FF at position 12; C-terminal NH2; stapled by olefin metathesis (PL3-B5 and B5-S8)
notes: It is the later-eluting isomer composition
As to B4, the IC50 in experiment [3] is 5 µM.

B5: I-64 (peptide)
peptide: Ac-ADI[RdN]DDAAFQ[S7]FWH-NH2
modifications: staple 4-11; not fully specified
notes: Stapled peptide; also called Ac-Ala-Asp-Ile-RdN-Asp-Asp-Ala-Ala-Phe-Gln-S7-Phe-Trp-His-NH2
With B5, the EC50 in experiment [4] came out at 4250 nM.

B6: I-66 (peptide)
peptide: Ac-ADI[RdN]DEAAFQ[S7]FWH-NH2
modifications: staple 4-11; not fully specified
notes: Stapled peptide; also called Ac-Ala-Asp-Ile-RdN-Asp-Glu-Ala-Ala-Phe-Gln-S7-Phe-Trp-His-NH2
Consider B6, for which the values for the EC50 in experiment [5] and in experiment [4] were 174 nM and 1090 nM, respectively.

B7: I-67 (peptide)
peptide: Ac-ADI[RdN]DEAAFQ[S7]FWH-NH2
modifications: staple 4-11
notes: as for B6
Consider B7, for which the EC50 in experiment [5] worked out at 154 nM; in experiment [4] it was 1230 nM.

Broadly, the EC50 is the concentration at which the effect is half-maximal. Low readings indicate higher potency in that assay, high ones lower potency in that assay. What is called IC50 is the concentration that gives 50% inhibition.

The record behind these values is US20240116985A1 (published 2024).
